The target of assay [1] is wild type full-length GFP-LRRK2 (human) (UniProt Q5S007). The experiment in a line: SILAC mass spectrometry of GFP-binder immunoprecipitates from HEK-293 lysates; range told of the group of isoforms.
The target in assay [2] is full-length GFP-LRRK2[G2019S] mutant (human) (UniProt Q5S007). Described as above.
Assay [3] concerns the target T1, full length human FLAG-LRRK2 (wild type) (human, UniProt Q5S007 1-2527, phosphoserine at 860, 910, 935, 955, 973 and 976 (mass spectrometry)).
T1 construct: mature; also called full length LRRK2
Kind of assay: glutathione-Sepharose affinity purification of GST tagged 14-3-3 isoforms from HEK-293 cells expressing FLAG-LRRK2, anti-FLAG immunoblot. How it is done: FIG. 2. […] A.) 5 mg of Swiss 3T3 lysate was subjected to immunoprecipitation with control IgG or anti-LRRK2 (S348C) antibody. Immunoprecipitates were resolved on 4-12% Novex SDS-polyacrylamide gel and immunoblotted with antibodies against LRRK2 (S374C), Hsp90 and pan 14-3-3. B.) 5 mg of Swiss 3T3 lysate was subjected to immunoprecipitation with anti-pan 14-3-3 antibodies and immunoprecipitates were resolved on 4-12% Novex SDS-polyacrylamide gels and immunoblotted with antibodies against pan-14-3-3 and LRRK2 (S374C). […] 36 hours post transfection cells were lysed and glutathione-Sepharose affinity purified proteins immunoblotted with anti-GST or anti-FLAG antibodies. D.) Fragments encoding the indicated domains of LRRK2 were transiently expressed in HEK-293 cells and immunoprecipitated with anti-FLAG antibodies. The immunoprecipitates were resolved on 4-12% Novex SDS-polyacrylamide gels and probed with either anti-FLAG antibodies or 14-3-3 overlay with digoxigenin labeled 14-3-3 in a far western assay. […] E.) Endogenous LRRK2 was immunoprecipitated from Swiss 3T3 cells with anti-LRRK2 (S348C) and subsequently treated with λ-phosphatase in the absence or presence of EDTA prior to immunoblot analysis with indicated antibodies or a 14-3-3 overlay assay. F.) As in E, except experiment undertaken with immunoprecipitated FLAG-LRRK2 obtained following transient transfection in HEK-293 cells.
Immunological procedures. Cell lysates (10-30 μg) were resolved by electrophoresis on SDS polyacrylamide gels or Novex 4-12% gradient gels, and electroblotted to nitrocellulose membranes. Membranes were blocked with 5% skimmed milk (w/v) in 50 mM Tris/HCl, pH 7.5, 0.15 M NaCl and 0.1% (v/v) Tween (TBST Buffer). For phospho-antibodies, primary antibody was used at a concentration of 1 μg/ml, diluted in 5% skimmed milk in TBST with the inclusion of 10 μg/ml dephosphorylated-peptide.

T1 sequence (Q5S007 whole entry): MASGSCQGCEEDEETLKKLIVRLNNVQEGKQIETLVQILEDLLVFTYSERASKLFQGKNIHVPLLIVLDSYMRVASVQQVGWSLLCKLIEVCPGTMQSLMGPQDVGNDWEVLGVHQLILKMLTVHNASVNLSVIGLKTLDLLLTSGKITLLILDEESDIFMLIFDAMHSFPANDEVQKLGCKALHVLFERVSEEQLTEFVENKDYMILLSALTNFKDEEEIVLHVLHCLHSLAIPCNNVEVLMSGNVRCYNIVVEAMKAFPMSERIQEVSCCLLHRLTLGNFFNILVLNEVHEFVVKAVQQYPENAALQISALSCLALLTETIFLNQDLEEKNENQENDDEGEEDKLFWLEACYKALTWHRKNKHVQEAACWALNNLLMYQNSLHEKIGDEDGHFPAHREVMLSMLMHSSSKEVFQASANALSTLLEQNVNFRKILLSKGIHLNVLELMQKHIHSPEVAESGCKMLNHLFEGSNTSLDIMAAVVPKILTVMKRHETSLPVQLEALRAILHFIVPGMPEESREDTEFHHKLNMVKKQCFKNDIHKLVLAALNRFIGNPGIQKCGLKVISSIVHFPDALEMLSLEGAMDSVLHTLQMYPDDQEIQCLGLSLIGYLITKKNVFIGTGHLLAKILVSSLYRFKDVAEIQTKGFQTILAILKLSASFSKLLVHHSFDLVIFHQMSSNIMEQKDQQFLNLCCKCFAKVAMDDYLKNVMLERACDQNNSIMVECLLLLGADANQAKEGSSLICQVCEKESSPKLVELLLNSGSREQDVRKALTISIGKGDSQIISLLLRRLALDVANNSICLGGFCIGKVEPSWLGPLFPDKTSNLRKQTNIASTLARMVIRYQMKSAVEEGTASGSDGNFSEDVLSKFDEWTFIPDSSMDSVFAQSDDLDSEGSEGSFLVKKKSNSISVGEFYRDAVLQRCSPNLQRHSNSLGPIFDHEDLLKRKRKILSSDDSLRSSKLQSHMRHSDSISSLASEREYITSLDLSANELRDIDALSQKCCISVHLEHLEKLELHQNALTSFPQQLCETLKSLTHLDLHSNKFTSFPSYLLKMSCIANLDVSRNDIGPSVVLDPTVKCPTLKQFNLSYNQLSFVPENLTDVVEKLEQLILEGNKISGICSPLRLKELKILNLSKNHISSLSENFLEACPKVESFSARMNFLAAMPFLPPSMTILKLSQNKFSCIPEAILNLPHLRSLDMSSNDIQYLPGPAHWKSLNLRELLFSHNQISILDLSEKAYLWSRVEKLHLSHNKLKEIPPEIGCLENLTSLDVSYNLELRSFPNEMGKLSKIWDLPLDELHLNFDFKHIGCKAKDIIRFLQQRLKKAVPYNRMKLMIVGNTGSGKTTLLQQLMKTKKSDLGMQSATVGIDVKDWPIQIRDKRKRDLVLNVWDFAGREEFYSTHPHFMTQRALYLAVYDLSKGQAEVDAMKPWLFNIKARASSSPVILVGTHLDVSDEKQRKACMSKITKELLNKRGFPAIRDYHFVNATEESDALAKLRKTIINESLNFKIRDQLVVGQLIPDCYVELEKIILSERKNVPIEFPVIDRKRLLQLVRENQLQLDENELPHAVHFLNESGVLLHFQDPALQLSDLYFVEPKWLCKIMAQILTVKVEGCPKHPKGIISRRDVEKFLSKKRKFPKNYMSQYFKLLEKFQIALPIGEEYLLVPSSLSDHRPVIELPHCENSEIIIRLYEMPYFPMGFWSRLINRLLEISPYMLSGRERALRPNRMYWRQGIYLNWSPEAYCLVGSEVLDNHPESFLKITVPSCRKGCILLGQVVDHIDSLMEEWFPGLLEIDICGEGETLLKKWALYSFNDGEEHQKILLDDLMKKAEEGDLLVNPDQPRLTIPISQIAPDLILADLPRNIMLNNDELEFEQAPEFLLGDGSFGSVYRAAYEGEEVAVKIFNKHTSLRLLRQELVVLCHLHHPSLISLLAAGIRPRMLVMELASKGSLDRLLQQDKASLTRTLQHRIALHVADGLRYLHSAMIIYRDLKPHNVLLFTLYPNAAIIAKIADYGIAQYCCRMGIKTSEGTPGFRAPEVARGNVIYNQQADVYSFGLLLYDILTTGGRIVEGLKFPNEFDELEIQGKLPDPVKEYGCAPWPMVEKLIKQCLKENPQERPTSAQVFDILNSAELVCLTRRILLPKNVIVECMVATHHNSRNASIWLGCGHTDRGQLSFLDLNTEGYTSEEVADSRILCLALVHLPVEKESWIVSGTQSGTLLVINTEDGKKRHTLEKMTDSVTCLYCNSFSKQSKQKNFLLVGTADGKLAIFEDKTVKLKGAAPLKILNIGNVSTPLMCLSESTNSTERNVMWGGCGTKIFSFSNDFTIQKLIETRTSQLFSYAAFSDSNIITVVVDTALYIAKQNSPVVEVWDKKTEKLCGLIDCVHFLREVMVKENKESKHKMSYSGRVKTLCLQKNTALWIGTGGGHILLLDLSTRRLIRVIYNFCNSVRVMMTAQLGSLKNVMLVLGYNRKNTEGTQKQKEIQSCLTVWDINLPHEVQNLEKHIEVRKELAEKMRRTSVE
Chain of full-length GFP-LRRK2[G2019S] mutant (human) (Q5S007 whole entry G2019S): as the sequence (Q5S007 whole entry) above, with G2019S counted along it
Chain of wild type full-length GFP-LRRK2 (human) (Q5S007 whole entry, canonical isoform): as the sequence (Q5S007 whole entry) above

Regarding endogenous 14-3-3 in 293 cells, the fold enrichment compared to GFP alone in assay [1] and in assay [2] was 10 to 30 fold each time.

B1: GST tagged human 14-3-3 theta (other)
chain: MEKTELIQKAKLAEQAERYDDMATCMKAVTEQGAELSNEERNLLSVAYKNVVGGRRSAWRVISSIEQKTDTSDKKLQLIKDYREKVESELRSICTTVLELLDKYLIANATNPESKVFYLKMKGDYFRYLAEVACGDDRKQTIDNSQGAYQEAFDISKKEMQPTHPIRLGLALNFSVFYYEILNNPELACTLAKTAFDEAIAELDTLNEDSYKDSTLIMQLLRDNLTLWTSDSAGEECDAAEGAEN
notes: As for GST tagged 14-3-3 beta; also called GST-14-3-3 theta; not shown: GST tag from the pEBG plasmid
As for B1, the binding result in assay [3] was “binds”.

B2: GST tagged human 14-3-3 gamma (other)
chain: MVDREQLVQKARLAEQAERYDDMAAAMKNVTELNEPLSNEERNLLSVAYKNVVGARRSSWRVISSIEQKTSADGNEKKIEMVRAYREKIEKELEAVCQDVLSLLDNYLIKNCSETQYESKVFYLKMKGDYYRYLAEVATGEKRATVVESSEKAYSEAHEISKEHMQPTHPIRLGLALNYSVFYYEIQNAPEQACHLAKTAFDDAIAELDTLNEDSYKDSTLIMQLLRDNLTLWTSDQQDDDGGEGNN
notes: As for GST tagged 14-3-3 beta; also called GST-14-3-3 gamma; not shown: GST tag from the pEBG plasmid
Consider B2, for which the binding result in assay [3] is given as “binds”.

B3: GST tagged human 14-3-3 zeta (other)
chain: MDKNELVQKAKLAEQAERYDDMAACMKSVTEQGAELSNEERNLLSVAYKNVVGARRSSWRVVSSIEQKTEGAEKKQQMAREYREKIETELRDICNDVLSLLEKFLIPNASQAESKVFYLKMKGDYYRYLAEVAAGDDKKGIVDQSQQAYQEAFEISKKEMQPTHPIRLGLALNFSVFYYEILNSPEKACSLAKTAFDEAIAELDTLSEESYKDSTLIMQLLRDNLTLWTSDTQGDEAEAGEGGEN
notes: As for GST tagged 14-3-3 beta; also called GST-14-3-3 zeta; not shown: GST tag from the pEBG plasmid
Turning to B3, the binding result in assay [3] is “binds”.

B4: GST tagged human 14-3-3 sigma (other)
chain: MERASLIQKAKLAEQAERYEDMAAFMKGAVEKGEELSCEERNLLSVAYKNVVGGQRAAWRVLSSIEQKSNEEGSEEKGPEVREYREKVETELQGVCDTVLGLLDSHLIKEAGDAESRVFYLKMKGDYYRYLAEVATGDDKKRIIDSARSAYQEAMDISKKEMPPTNPIRLGLALNFSVFHYEIANSPEEAISLAKTTFDEAMADLHTLSEDSYKDSTLIMQLLRDNLTLWTADNAGEEGGEAPQEPQS
notes: As for GST tagged 14-3-3 beta; also called atypical sigma isoform; not shown: GST tag from the pEBG plasmid
As for B4, the binding result in assay [3] is given as “no binding”.

B5: GST tagged human 14-3-3 epsilon (other)
chain: MDDREDLVYQAKLAEQAERYDEMVESMKKVAGMDVELTVEERNLLSVAYKNVIGARRASWRIISSIEQKEENKGGEDKLKMIREYRQMVETELKLICCDILDVLDKHLIPAANTGESKVFYYKMKGDYHRYLAEFATGNDRKEAAENSLVAYKAASDIAMTELPPTHPIRLGLALNFSVFYYEILNSPDRACRLAKAAFDDAIAELDTLSEESYKDSTLIMQLLRDNLTLWTSDMQGDGEEQNKEALQDVEDENQ
notes: As for GST tagged 14-3-3 beta; also called GST-14-3-3 epsilon; not shown: GST tag from the pEBG plasmid
For B5, the binding result in assay [3] was “binds”.

B6: GST tagged human 14-3-3 beta (other)
chain: MTMDKSELVQKAKLAEQAERYDDMAAAMKAVTEQGHELSNEERNLLSVAYKNVVGARRSSWRVISSIEQKTERNEKKQQMGKEYREKIEAELQDICNDVLELLDKYLIPNATQPESKVFYLKMKGDYFRYLSEVASGDNKQTTVSNSQQAYQEAFEISKKEMQPTHPIRLGLALNFSVFYYEILNSPEKACSLAKTAFDEAIAELDTLNEESYKDSTLIMQLLRDNLTLWTSENQGDEGDAGEGEN
notes: One of all seven isoforms of human 14-3-3 expressed from pEBG plasmids; also called GST-14-3-3 beta; not shown: GST tag from the pEBG plasmid
In the case of B6, in assay [3], the binding result was “binds”.

B7: GST tagged human 14-3-3 eta (other)
chain: MGDREQLLQRARLAEQAERYDDMASAMKAVTELNEPLSNEDRNLLSVAYKNVVGARRSSWRVISSIEQKTMADGNEKKLEKVKAYREKIEKELETVCNDVLSLLDKFLIKNCNDFQYESKVFYLKMKGDYYRYLAEVASGEKKNSVVEASEAAYKEAFEISKEQMQPTHPIRLGLALNFSVFYYEIQNAPEQACLLAKQAFDDAIAELDTLNEDSYKDSTLIMQLLRDNLTLWTSDQQDEEAGEGN
notes: As for GST tagged 14-3-3 beta; also called GST-14-3-3 eta; not shown: GST tag from the pEBG plasmid
Regarding B7, the binding result in assay [3] was “binds”.

For the origin of these results see patent US20110256062A1 (MEDICAL RESEARCH COUNCIL, published 2011).
